{
  "source": "patent US20140322196A1",
  "experiment_in_all_cases": "cell-based or functional assay",
  "key": {"[1]": {"target": "Hemagglutinin (HA) of Influenza A virus A/Parma/5/06 (Wisconsin-like) H3N2 (Influenza A virus A/Parma/05/06 H3N2)"}, "[2]": {"target": "Hemagglutinin (HA) of Influenza A virus A/Puerto Rico/8/34 H1N1 (PR8 virus) (Influenza A virus A/Puerto Rico/8/34 H1N1) (UniProt P03452)"}, "[3]": {"target": "Hemagglutinin (HA) of Influenza A virus A/Roma-ISS/2/08 (Brisbane-like) (oseltamivir-sensitive) H1N1 (Influenza A virus A/RomaISS/2/08 H1N1)"}, "[4]": {"target": "Hemagglutinin (HA) of Influenza A virus A/Turkey/Italy/2676/99 H7N1 (Influenza A virus A/Turkey/Italy/2676/99 H7N1)"}},
  "data": [
    {"binder": "bLf C-lobe (aa 285-689) (protein) SFQLFGSPPGQRDLLFKDSALGFLRIPSKVDSALYLGSRYLTTLKNLRETAEEVKARYTRVVWCAVGPEEQKKCQQWSQQSGQNVTCATASTTDDCIVLVLKGEADALNLDGGYIYTAGKCGLVPVLAENRKSSKHSSLDCVLRPTEGYLAVAVVKKANEGLTWNSLKDKKSCHTAVDRTAGWNIPMGLIVNQTGSCAFDEFFSQSCAPGADPKSRLCALCAGDDQGLDKCVPNSKEKYYGYTGAFRCLAEDVGDVAFVKNDTVWENTNGESTADWAKNLNREDFRLLCLDGTRKPVTEAQSCHLAVAPNHAVVSRSDRAAHVKQVLLHQQALFGKNGKNCPDKFCLFKSETKNLLFNDNTECLAKLGGRPTYEEYLGTEYVTAIANLKKCSTSPLLEACAFLTR", "values": [
      {"measurement": "activity on viral hemagglutination (HI)", "setting": "[1]", "result": 6, "unit": "nM"},
      {"measurement": "activity on viral hemagglutination (HI)", "setting": "[2]", "result": 24, "unit": "nM"},
      {"measurement": "activity on viral hemagglutination (HI)", "setting": "[3]", "result": 10, "unit": "nM"},
      {"measurement": "activity on viral hemagglutination (HI)", "setting": "[4]", "result": 93.1, "unit": "fM"}
    ]},
    {"binder": "bLf C-lobe (aa 345-689) (protein) VVWCAVGPEEQKKCQQWSQQSGQNVTCATASTTDDCIVLVLKGEADALNLDGGYIYTAGKCGLVPVLAENRKSSKHSSLDCVLRPTEGYLAVAVVKKANEGLTWNSLKDKKSCHTAVDRTAGWNIPMGLIVNQTGSCAFDEFFSQSCAPGADPKSRLCALCAGDDQGLDKCVPNSKEKYYGYTGAFRCLAEDVGDVAFVKNDTVWENTNGESTADWAKNLNREDFRLLCLDGTRKPVTEAQSCHLAVAPNHAVVSRSDRAAHVKQVLLHQQALFGKNGKNCPDKFCLFKSETKNLLFNDNTECLAKLGGRPTYEEYLGTEYVTAIANLKKCSTSPLLEACAFLTR", "values": [
      {"measurement": "activity on viral hemagglutination (HI)", "setting": "[1]", "result": 6, "unit": "nM"},
      {"measurement": "activity on viral hemagglutination (HI)", "setting": "[2]", "result": 12, "unit": "nM"},
      {"measurement": "activity on viral hemagglutination (HI)", "setting": "[3]", "result": 10, "unit": "nM"},
      {"measurement": "activity on viral hemagglutination (HI)", "setting": "[4]", "result": 93.1, "unit": "fM"}
    ]}
  ]
}
